Experimental data published in publication PMC9785946, “Bioorthogonal Chemistry Approach for the Theranostics of GRPR-Expressing Cancers” (Pharmaceutics, 2022).
Where “and” joins values, the source holds several entries; their conditions need not be identical. Identical values can stand only once. Like-named read-outs stand apart in the source and are kept apart here.

Columns and labels:
[1] = Description: The octanol–water partition coefficients (Po/w) of the radioconjugates (20 µL, typically 1 to 5 MBq) were determined by the “shake-flask” method, as previously described.
PC3 cells = assay: Cellular uptake, internalization and blocking assays in PC3 cells; assay type: cell-based, human; conditions: 37 °C
Description: The time-dependent accumulation of ^111In-conjugates in PC3 cells was evaluated according to a previously described procedure. Briefly, PC3 cells were incubated at 37 °C for 5 min to 4 h with about 7.4 kBq of the tested radioconjugates. To assess the surface binding, the cells were treated twice with glycine buffer (50 mM glycine-HCl/100 mM NaCl, pH 2.8). Then, the cells were lysed with NaOH 1 M (internalized radioconjugate). The activity in both cell surface-bound and internalized fractions was measured in a γ-counter and reported as a percentage of the total applied radioactivity. The total cellular uptake was calculated by the addition of the activities recovered from the surface binding and internalized fractions. Assays for each time point were performed in quadruplicate, and data were presented as average ± SD of typically three independent experiments.
To assess the specific GRPR-mediated cellular uptake and internalization of radioconjugates (receptor blocking studies), a similar study was performed in which cells were incubated with the [^111In]In-DOTA-Tz-TCO-PEG4-AR for 1, 2 and 4 h, with or without the GRPR agonist Tyr4-Bombesin (0.25 µg/0.5 mL/well).

[2] = Biodistribution of 111In-radioconjugates/radiocomplex in PC3 xenografts-bearing mice; assay type: in vivo, Balb/c-male nude mice; conditions: male, Balb/c nude, mouse, iv, total radioactivity; for tissue uptake at […]: 15 min p.i.
Source text: (§1) Blood samples were taken by cardiac puncture at sacrifice.

[3] = system: PC3 xenografts-bearing mice; assay: as above; assay type: in vivo, Balb/c-male nude mice
Source text: as §1

[4] = 15 min p.i., listed as [111In]In-DOTA-Tz-TCO-PEG4-AR
[5] = 1 h p.i., blocking (excess of agonist)
[6] = 15 min p.i., listed as [111In]In-DOTA-Tz
[7] = 1 h p.i., listed as [111In]In-DOTA-Tz

SMILES: CC(C)C[C@H](NC(=O)C[C@H](O)[C@H](CC(C)C)NC(=O)[C@H](Cc1c[nH]cn1)NC(=O)CNC(=O)[C@@H](NC(=O)[C@H](C)NC(=O)[C@H](Cc1c[nH]c2ccccc12)NC(=O)[C@H](CCC(N)=O)NC(=O)[C@@H](Cc1ccccc1)NC(=O)CCOCCOCCOCCOCCNC(=O)OC1CCCc2c(cnnc2-c2ccc(CNC(=O)CN3CCN(CC(=O)O)CCN(CC(=O)O)CCN(CC(=O)O)CC3)cc2)CC1)C(C)C)C(N)=O (stereo partly shown) [[^111In]In-DOTA-Tz-TCO-PEG4-AR, metal not drawn]
- logP [1]: -1.2 ± 0.04
- Distribution of cell-associated activity (surface-bound vs internalized) (PC3 cells): mainly bound to the cell membrane
- Cellular uptake (PC3 cells; start of the assay): 17 % of the total activity applied per million cells
- tissue uptake at 1 h ([2]; heart, 1 h p.i., read-out: Heart uptake): 0.815 %ID/g
- dose excreted at 1 h ([2]; in vivo, 1 h p.i., read-out: Excretion): 74.8%
- dose excreted at 24 h ([2]; in vivo, 24 h post-injection, mainly through the renal system, read-out: Injected activity excreted): 97%
- tissue uptake at 1 h ([2]; intestine, 1 h p.i., read-out: Intestine uptake): 1.85 %ID/g
- tissue uptake at […] ([2]; kidneys, read-out: Kidneys uptake): 15.4 ± 6.2 %ID/g
- tissue uptake at 1 h ([2]; kidneys, 1 h p.i., read-out: Kidneys uptake): 5.33 %ID/g
- tissue uptake at […] ([2]; liver, read-out: Liver uptake): 6 %ID/g
- tissue uptake at 1 h ([2]; lungs, 1 h p.i., read-out: Lungs uptake): 1.61 %ID/g
- tissue uptake at 1 h ([2]; muscle, 1 h p.i., read-out: Muscle uptake): 0.875 %ID/g
- tissue uptake at 2 h ([2]; pancreas, 2 h p.i.): 11 %ID/g
- tissue uptake at 1 h ([2]; pancreas, with excess of agonist (receptor blocking), 1 h p.i., blocking (excess of agonist), read-out: Pancreas uptake): 1.6 ± 0.6 %ID/g
- tissue uptake at 1 h ([2]; stomach, 1 h p.i., read-out: Stomach uptake): 2.62 %ID/g
- tissue uptake at 1 h ([2]; tumor (PC3 xenograft), 1 h p.i., read-out: Tumor uptake): 9.57 %ID/g
- tissue uptake at 1 h ([2]; tumor (PC3 xenograft), with excess of agonist (receptor blocking), 1 h p.i., blocking (excess of agonist), read-out: Tumor uptake): 4.4 ± 2 %ID/g
- Blood uptake ([3]; 15 min p.i.): 6. 7 % I.D./g
- Bone uptake ([3]; 15 min p.i.): 7. 2 % I.D./g
- Excretion ([3]; 15 min p.i.): 17. % I.D.
- Heart uptake ([3]; 15 min p.i.): 5. 4 % I.D./g
- Intestine uptake ([3]; 15 min p.i.): 3. 6 % I.D./g
- Lungs uptake ([3]; 15 min p.i.): 9. 6 % I.D./g
- Muscle uptake ([3]; 15 min p.i.): 3. 8 % I.D./g
- Pancreas uptake ([3]; 15 min p.i.): 25.2 ± 3 % I.D./g and 25.2 ± 0.2 % I.D./g
- Spleen uptake ([3]; 15 min p.i.): 3. 6 % I.D./g
- Stomach uptake ([3]; 15 min p.i.): 10. 6 % I.D./g
- Tumor uptake ([3]; 15 min p.i.): 8.4 ± 0.5 % I.D./g
- Kidneys uptake [3, 4]: 15. 4 % I.D./g
- Pancreas uptake [3, 4]: 25. 2 % I.D./g
- Tumor uptake [3, 4]: 8. 4 % I.D./g
- Blood uptake ([3]; 1 h p.i.): 2. 62 % I.D./g
- Bone uptake ([3]; 1 h p.i.): 0. 85 % I.D./g
- Liver uptake ([3]; 1 h p.i.): 1. 15 % I.D./g
- Pancreas uptake ([3]; 1 h p.i.): 13.9 ± 1.6 % I.D./g
- Spleen uptake ([3]; 1 h p.i.): 1. 32 % I.D./g
- Tumor uptake ([3]; 1 h p.i.): 9.6 ± 1.7 % I.D./g
- Blood uptake [3, 5]: 3. 08 % I.D./g
- Bone uptake [3, 5]: 1. 395 % I.D./g
- Excretion [3, 5]: 51. % I.D.
- Heart uptake [3, 5]: 1. 11 % I.D./g
- Intestine uptake [3, 5]: 0. 995 % I.D./g
- Kidneys uptake [3, 5]: 8. 435 % I.D./g
- Liver uptake [3, 5]: 1. 63 % I.D./g
- Lungs uptake [3, 5]: 2. 135 % I.D./g
- Muscle uptake [3, 5]: 1. 755 % I.D./g
- Pancreas uptake [3, 5]: 1. 685 % I.D./g
- Spleen uptake [3, 5]: 0. 83 % I.D./g
- Stomach uptake [3, 5]: 1. 16 % I.D./g
- Tumor uptake [3, 5]: 4. 445 % I.D./g
- Pancreas uptake ([3]; 1 h p.i., listed as [111In]In-DOTA-Tz-TCO-PEG4-AR): 13. 875 % I.D./g
- Blood uptake ([3]; 2 h p.i.): 1. 7 % I.D./g
- Bone uptake ([3]; 2 h p.i.): 0. 7 % I.D./g
- Excretion ([3]; 2 h p.i.): 84. % I.D.
- Heart uptake ([3]; 2 h p.i.): 0. 5 % I.D./g
- Intestine uptake ([3]; 2 h p.i.): 1. 1 % I.D./g
- Kidneys uptake ([3]; 2 h p.i.): 5. 4 % I.D./g
- Liver uptake ([3]; 2 h p.i.): 1. 7 % I.D./g
- Lungs uptake ([3]; 2 h p.i.): 1. 1 % I.D./g
- Muscle uptake ([3]; 2 h p.i.): 0. 6 % I.D./g
- Pancreas uptake ([3]; 2 h p.i.): 11 ± 2.5 % I.D./g
- Spleen uptake ([3]; 2 h p.i.): 0. 6 % I.D./g
- Stomach uptake ([3]; 2 h p.i.): 2. 1 % I.D./g
- Tumor uptake ([3]; 2 h p.i.): 13.1 ± 1.7 % I.D./g
- Tumor uptake ([3]; 2 h p.i., listed as [111In]In-DOTA-Tz-TCO-PEG4-AR): 13. 1 % I.D./g
- Blood uptake ([3]; 24 h p.i.): 0. 16 % I.D./g
- Bone uptake ([3]; 24 h p.i.): 0. 038 % I.D./g
- Excretion ([3]; 24 h p.i.): 96. % I.D.
- Heart uptake ([3]; 24 h p.i.): 0. 065 % I.D./g
- Intestine uptake ([3]; 24 h p.i.): 0. 12 % I.D./g
- Kidneys uptake ([3]; 24 h p.i.): 1. 17 % I.D./g
- Liver uptake ([3]; 24 h p.i.): 0. 21 % I.D./g
- Lungs uptake ([3]; 24 h p.i.): 0. 12 % I.D./g
- Muscle uptake ([3]; 24 h p.i.): 0. 034 % I.D./g
- Pancreas uptake ([3]; 24 h p.i.): 0. 14 % I.D./g
- Spleen uptake ([3]; 24 h p.i.): 0. 065 % I.D./g
- Stomach uptake ([3]; 24 h p.i.): 0. 09 % I.D./g
- Tumor uptake ([3]; 24 h p.i.): 0. 76 % I.D./g

SMILES: O=C([O-])CN1CCN(CC(=O)[O-])CCN(CC(=O)NCc2ccc(-c3nncnn3)cc2)CCN(CC(=O)[O-])CC1.[111In+3] [[^111In]In-DOTA-Tz]
- Blood uptake ([3]; 15 min p.i.): 2. 7 % I.D./g
- Bone uptake ([3]; 15 min p.i.): 0. 8 % I.D./g
- Excretion ([3]; 15 min p.i.): 61. % I.D.
- Heart uptake ([3]; 15 min p.i.): 0. 9 % I.D./g
- Intestine uptake ([3]; 15 min p.i.): 0. 4 % I.D./g
- Kidneys uptake ([3]; 15 min p.i.): 4. 4 % I.D./g
- Liver uptake ([3]; 15 min p.i.): 0. 9 % I.D./g
- Lungs uptake ([3]; 15 min p.i.): 1. 4 % I.D./g
- Muscle uptake ([3]; 15 min p.i.): 0. 8 % I.D./g
- Pancreas uptake ([3]; 15 min p.i.): 0.42 ± 0.02 % I.D./g
- Spleen uptake ([3]; 15 min p.i.): 0. 45 % I.D./g
- Stomach uptake ([3]; 15 min p.i.): 0. 4 % I.D./g
- Tumor uptake ([3]; 15 min p.i.): 2.46 ± 0.6 % I.D./g
- Pancreas uptake [3, 6]: 0. 42 % I.D./g
- Tumor uptake [3, 6]: 2. 46 % I.D./g
- Blood uptake ([3]; 1 h p.i.): 0. 4 % I.D./g
- Bone uptake ([3]; 1 h p.i.): 0. 2 % I.D./g
- Excretion ([3]; 1 h p.i.): 88 % I.D.
- Heart uptake ([3]; 1 h p.i.): 0. 17 % I.D./g
- Intestine uptake ([3]; 1 h p.i.): 0. 29 % I.D./g
- Kidneys uptake ([3]; 1 h p.i.): 2. 1 % I.D./g
- Liver uptake ([3]; 1 h p.i.): 0. 4 % I.D./g
- Lungs uptake ([3]; 1 h p.i.): 0. 38 % I.D./g
- Muscle uptake ([3]; 1 h p.i.): 0. 1 % I.D./g
- Pancreas uptake ([3]; 1 h p.i.): 0.09 ± 0.06 % I.D./g
- Spleen uptake ([3]; 1 h p.i.): 0. 14 % I.D./g
- Stomach uptake ([3]; 1 h p.i.): 0. 17 % I.D./g
- Tumor uptake ([3]; 1 h p.i.): 0.5 ± 0.2 % I.D./g
- Pancreas uptake [3, 7]: 0. 09 % I.D./g
- Tumor uptake [3, 7]: 0. 5 % I.D./g
- Blood uptake ([3]; 24 h p.i.): 0. 03 % I.D./g
- Bone uptake ([3]; 24 h p.i.): 0. 04 % I.D./g
- Excretion ([3]; 24 h p.i.): 97. % I.D.
- Heart uptake ([3]; 24 h p.i.): 0. 02 % I.D./g
- Intestine uptake ([3]; 24 h p.i.): 0. 09 % I.D./g
- Kidneys uptake ([3]; 24 h p.i.): 0. 87 % I.D./g
- Liver uptake ([3]; 24 h p.i.): 0. 12 % I.D./g
- Lungs uptake ([3]; 24 h p.i.): 0. 07 % I.D./g
- Muscle uptake ([3]; 24 h p.i.): 0. 021 % I.D./g
- Pancreas uptake ([3]; 24 h p.i.): 0. 03 % I.D./g
- Spleen uptake ([3]; 24 h p.i.): 0. 08 % I.D./g
- Stomach uptake ([3]; 24 h p.i.): 0. 03 % I.D./g
- Tumor uptake ([3]; 24 h p.i.): 0. 13 % I.D./g

SMILES: CC(C)C[C@H](NC(=O)C[C@H](O)[C@H](CC(C)C)NC(=O)[C@H](Cc1c[nH]cn1)NC(=O)CNC(=O)[C@@H](NC(=O)[C@H](C)NC(=O)[C@H](Cc1c[nH]c2ccccc12)NC(=O)[C@H](CCC(N)=O)NC(=O)[C@@H](Cc1ccccc1)NC(=O)CN1CCC(NC(=O)OC2CCCc3c(cnnc3-c3ccc(CNC(=O)CCC(C(=O)O)N4CCN(CC(=O)O)CCN(CC(=O)O)CCN(CC(=O)O)CC4)cc3)CC2)CC1)C(C)C)C(N)=O (stereo partly shown) [[^111In]In-DOTAGA-Tz-TCO-Pip-AR, metal not drawn]
- logP [1]: -0.9
- Distribution of cell-associated activity (surface-bound vs internalized) (PC3 cells): almost all cell-associated activity corresponded to the membrane-bound fraction
- Maximum cellular uptake (PC3 cells; 5 min to 4 h): around 10 % of the total activity applied per million cells
